The text below walks through data of paper PMC5638241, “Chlorophyte aspartyl aminopeptidases: Ancient origins, expanded families, new locations, and secondary functions” (PLoS ONE, 2017).

Series [1] deals with Arabidopsis thaliana aspartyl aminopeptidase 2, mature (without transit peptide), with N-terminal His6 (His6-DAP2) (Arabidopsis thaliana). In words: native gel or EMSA; series of native polyacrylamide gels (4, 4.5, 5 and 6% acrylamide) of Ni-NTA-purified His6-DAPs; masses from relative mobilities and retardation coefficients (Hedrick and Smith; Bryan), BSA and urease as mass standards. (A gel shift assay detects complexes by their altered migration in electrophoresis.)

Series [2] deals with the molecule itself. The series is described as above.
Substrate in the series “purified protein”: N[C@@H](CC(=O)O)C(=O)Nc1ccc([N+](=O)[O-])cc1
In words: purified protein. The conditions noted are these: 50 mM Tris-HCl pH 8.0, enzyme pre-activated with 0.5 mM MnCl2. It counts as biochemical, Arabidopsis thaliana.

“Arabidopsis thaliana aspartyl aminopeptidase 2, mature (without transit peptide), with N-terminal His6 (His6-DAP2) (enzyme)”: the stoichiometry N in series [1] came to 12.

B1: Arabidopsis thaliana aspartyl aminopeptidase 1 with N-terminal His6 (His6-DAP1) (enzyme, UniProt Q9LST0 1-477, looked up)
chain: MDKSSLVSDFLSFLNASPTAFHAVDESKRRLLKAGYEQISERDDWKLEAGKKYFFTRNYSTIVAFAIGHKYVAGNGFHIIGAHTDSPCLKLKPVSKITKGGCLEVGVQTYGGGLWYTWFDRDLTVAGRVILKEEKAGSVSYSHRLVRIEDPIMRIPTLAIHLDRNVNTEGFKPNTQTHLVPVLATAIKAELNKTPAESGEHDEGKKCAETSSKSKHHPLLMEIIANALGCKPEEICDFELQACDTQPSILAGAAKEFIFSGRLDNLCMSFCSLKALIDATSSGSDLEDESGIRMVALFDHEEVGSNSAQGAGSPVMIDAMSHITSCFSSDTKVLKKAIQKSLLVSADMAHALHPNFMDKHEENHQPKMHGGLVIKHNANQRYATNAVTSFVFREIAEKHNLPVQDFVVRNDMGCGSTIGPILASSVGIRTVDVGAPQLSMHSIREMCAADDVKHSYEHFKAFFQEFTHLDAKLTIDV
notes: AtDAP1 (At5g60160), M18 aspartyl aminopeptidase of Arabidopsis thaliana ecotype Columbia; entire coding region of the DAP1 cDNA (nucleotides 86 to 1519 of NM_125409) cloned into pET28; Monomer 54.6 kDa as printed; also called AtDAP1; At5g60160; source: E. coli BL21[DE3]pLys, purified (Ni-NTA, 100-kDa MWCO Centricon); not shown: His6, N-terminal, kept; copies: 12
Regarding B1, the “stoichiometry N” value in series [2] came to 12. The Km in the series “purified protein” was found to be 1250 µM.

B2: His6-DAP2 (mature AtDAP2) (Arabidopsis thaliana) (protein)
chain: ASIVGDLLDYLNESWTQFHATAEAKRQLLAAGFDLLSENEDWNLKPGGRYFFTRNMSCLVAFAVGEKYVPGNGFHAIAAHTDSPCLKLKPKSASSKSGYLMVNVQTYGGGLWHTWFDRDLSVAGRAIVRASDGSFVHRLVKVKRPLLRVPTLAIHLDRTVNSDGFKPNLETQLVPLLATKSDESSAESKDKNVSSKDAHHPLLMQILSDDLDCKVEDIVSLELNICDTQPSCLGGANNEFIFSGRLDNLASSFCALRALIDSCESSENLSTEHDIRMIALFDNEEVGSDSCQGAGAPTMFQAMRRIVSSLGNKQVTECTFDRAIRKSFLVSADMAHGVHPNFADKHEENHRPQLHKGLVIKHNANQRYATSGITSFLFKEVAKLHDLPIQEFVVRNDMGCGSTIGPILASGVGIRTVDCGIAQLSMHSVREICGTDDIDIAYRHFKAFYRSFSSVDKKLVVDD
notes: mature form without 63-residue transit peptide, N-terminal His6 fusion (pET28), E. coli BL21(DE3)pLysS, Ni-NTA; no tag removal mentioned
Consider B2, for which, in the series “purified protein”, the Km worked out at 210 µM and the kcat/Km is 3.47e+07 M⁻¹ s⁻¹.

Broadly, the stoichiometry N is the number of molecules, sites or subunits per partner or assembly. Broadly, the Km is the concentration of substrate that gives half-maximal velocity. As usually defined, the kcat/Km is the second-order rate constant that governs catalysis at low substrate concentration.
